± gives the standard error. For part of these data: Fewer inactive variants are shown than the library holds.
B1: glmS ribozyme (parent)
chain: AUAAAAGCGCCAGAACUACAGAAAUGUAGUUGACGAGGAGGAGGUUUAUCGAAUUUUCGGCGGAUGCCUCCAAA

Legend:
Details in all cases: with glucosamine-6-phosphate
[1] = variants of: B1; experiment: kcat; higher = faster cleavage; RNA array
Procedure, shortened: (§1)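 Barcoded ribozyme variants, transcribed in situ by E. coli RNA polymerase on sequenced MiSeq chips, were followed via a hybridised Cy3 probe at 37 °C. Glucosamine-6-phosphate ranged from 40 μM to 10 mM in HEPES/KCl/Mg(OAc)2 buffer. kobs came from decay fits to per-tile medians, and kcat and KM from weighted Michaelis–Menten fits.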

[2] = variants of: B1; experiment: self-cleavage kobs at 640 uM GlcN6P; higher = faster cleavage; RNA array
Procedure, shortened: as §1

[3] = variants of: B1; experiment: self-cleavage kobs at 2500 uM GlcN6P; higher = faster cleavage; RNA array
Procedure, shortened: as §1

[4] = variants of: B1; experiment: KM; higher = weaker cofactor use; RNA array
Procedure, shortened: as §1

[5] = variants of: B1; experiment: self-cleavage kobs at 160 uM GlcN6P; higher = faster cleavage; RNA array
Procedure, shortened: as §1

[6] = variants of: B1; experiment: self-cleavage kobs at 10000 uM GlcN6P; higher = faster cleavage; RNA array
Procedure, shortened: as §1

[7] = variants of: B1; experiment: self-cleavage kobs at 40 uM GlcN6P; higher = faster cleavage; RNA array
Procedure, shortened: as §1

Row | Variant | kcat [1] [s⁻¹] | self-cleavage kobs at 640 uM GlcN6P [2] [s⁻¹] | self-cleavage kobs at 2500 uM GlcN6P [3] [s⁻¹] | KM [4] [µM] | self-cleavage kobs at 160 uM GlcN6P [5] [s⁻¹] | self-cleavage kobs at 10000 uM GlcN6P [6] [s⁻¹] | self-cleavage kobs at 40 uM GlcN6P [7] [s⁻¹]
1 | U65A C67G C71G | 2.24e-05 ± 6.2e-06 | – | – | – | – | – | –
2 | U57G C58G | 3.94e-05 ± 1.6e-05 | 7.15e-05 ± 2.3e-05 | 5.55e-05 ± 2e-05 | – | – | – | –
3 | C58A C70U | 0.000164 ± 2.2e-05 | 6.79e-05 ± 8.4e-06 | 0.000143 ± 1.3e-05 | 718 ± 270 | 3.94e-05 ± 9.4e-06 | 0.000145 ± 1.7e-05 | –
4 | G62U C68A | 1.34e-05 ± 8.7e-07 | – | – | 129 ± 56 | – | – | –
5 | G62U C68U | 1.22e-05 ± 1.2e-06 | < 1e-05 | – | – | – | – | –
6 | G59C C67A | < 1e-05 | – | – | – | – | < 1e-05 | < 1e-05
7 | U57A C70G | 3.91e-05 ± 1.5e-05 | 4.96e-05 ± 1.4e-05 | 6.55e-05 ± 1.6e-05 | – | – | – | –
8 | U65A C70G | 7.88e-05 ± 4.1e-06 | 7.89e-05 ± 1e-05 | 7.95e-05 ± 1e-05 | 66.3 ± 25 | 5.95e-05 ± 1.2e-05 | 7.32e-05 ± 7.6e-06 | –
9 | A64G C71G | 0.000386 ± 8.2e-05 | 0.000495 ± 0.00013 | 0.000271 ± 2.9e-05 | – | 6.24e-05 ± 2e-05 | 0.000398 ± 5.8e-05 | –
10 | G60C C68A | 1.32e-05 ± 4.3e-06 | – | – | – | – | < 1e-05 | < 1e-05
11 | G63C U69A | 1.18e-05 ± 4.3e-06 | – | – | – | – | – | –
12 | G59C C70G | 1.6e-05 ± 3.6e-06 | – | – | – | – | – | –
13 | C58A G62A | < 1e-05 | < 1e-05 | – | – | – | – | < 1e-05
14 | C61G U69G | 1.73e-05 ± 4.8e-06 | – | – | – | – | – | –
15 | G59U C61G | < 1e-05 | – | – | – | – | < 1e-05 | –
16 | A64G U69A | 8.09e-05 ± 8.7e-06 | 3.36e-05 ± 1.6e-05 | 4.75e-05 ± 1.6e-05 | 1230 ± 510 | – | 7.42e-05 ± 1.3e-05 | < 1e-05
17 | G63U U69G | 2.86e-05 ± 7.3e-06 | 3.96e-05 ± 1.5e-05 | – | – | 3.51e-05 ± 1.5e-05 | – | –
18 | C61G C67G | 1.22e-05 ± 1.5e-06 | – | – | – | – | – | –
19 | U57C C71A | 2.47e-05 ± 4e-06 | – | 2.96e-05 ± 1e-05 | – | – | – | –
20 | A64G C67A | 0.00338 ± 0.00073 | 0.000794 ± 0.00012 | 0.0018 ± 0.00034 | 1730 ± 520 | 0.000303 ± 4.4e-05 | 0.00346 ± 0.00059 | 9.53e-05 ± 1.7e-05

Row | Variant | kcat [1] [s⁻¹] | self-cleavage kobs at 640 uM GlcN6P [2] [s⁻¹] | self-cleavage kobs at 2500 uM GlcN6P [3] [s⁻¹] | KM [4] [µM] | self-cleavage kobs at 160 uM GlcN6P [5] [s⁻¹] | self-cleavage kobs at 10000 uM GlcN6P [6] [s⁻¹] | self-cleavage kobs at 40 uM GlcN6P [7] [s⁻¹]
21 | C61U U69G | 1.8e-05 ± 3.9e-06 | – | – | – | – | – | –
22 | C61U U69A | 4.43e-05 ± 1.5e-05 | 4.2e-05 ± 1.3e-05 | 6.76e-05 ± 1.9e-05 | – | 3.86e-05 ± 1.8e-05 | – | –
23 | G62A C71G | 1.44e-05 ± 2.8e-06 | – | – | – | – | – | –
24 | C58A C67A | 0.000182 ± 3.1e-05 | 3.37e-05 ± 1.2e-05 | 0.000146 ± 4e-05 | 2300 ± 1000 | – | 0.000144 ± 2e-05 | –
25 | U57A C68G | 3.34e-05 ± 1.3e-05 | 6.21e-05 ± 1.7e-05 | 4.55e-05 ± 1.7e-05 | – | – | – | –
26 | C61A C68G | 1.96e-05 ± 3.4e-06 | – | – | – | – | – | –
27 | C61A C68U | 1.56e-05 ± 2e-06 | – | – | – | – | – | –
28 | G60A A64G | 2.24e-05 ± 4.8e-07 | – | – | 1390 ± 160 | – | – | –
29 | C58A C68A | 3.68e-05 ± 1.1e-05 | 5.26e-05 ± 1.6e-05 | 3.75e-05 ± 1.7e-05 | – | 4.01e-05 ± 1.7e-05 | – | –
30 | C58A C68G | 3.84e-05 ± 1.3e-05 | 6.18e-05 ± 1.1e-05 | 4.14e-05 ± 1.2e-05 | – | 4.34e-05 ± 1.2e-05 | – | –
31 | G60C C70U | < 1e-05 | – | – | – | < 1e-05 | – | –
32 | A64C | 0.000188 ± 1.2e-05 | 5.05e-05 ± 1.6e-06 | 0.000127 ± 3e-06 | 1610 ± 260 | 1.42e-05 ± 3e-06 | 0.000157 ± 2.8e-06 | –
33 | A64U | 0.00017 ± 6.8e-06 | 4.12e-05 ± 1.3e-06 | 0.000102 ± 1.9e-06 | 1860 ± 190 | 1.18e-05 ± 2.4e-06 | 0.000141 ± 2.2e-06 | –
34 | A64G | 0.0475 ± 0.0029 | 0.0109 ± 0.0004 | 0.0249 ± 0.0011 | 2080 ± 150 | 0.0031 ± 0.0002 | 0.0412 ± 0.0018 | 0.000914 ± 1.8e-05
35 | C58U C61A | 6.3e-05 ± 2.6e-05 | 0.000108 ± 3.4e-05 | 7.93e-05 ± 1.5e-05 | – | 6.42e-05 ± 1.7e-05 | – | –
36 | U57A C67G | 5.87e-05 ± 1.1e-05 | 5.39e-05 ± 1.5e-05 | 3.77e-05 ± 1.1e-05 | – | – | 7.6e-05 ± 1.1e-05 | –
37 | C58U | 0.00011 ± 3.8e-06 | 1.66e-05 ± 1.8e-06 | 3.96e-05 ± 1.2e-06 | 4350 ± 360 | – | 7.7e-05 ± 1.3e-06 | < 1e-05
38 | C58G | 0.000194 ± 8.4e-06 | 3.47e-05 ± 1.2e-06 | 8.3e-05 ± 1.6e-06 | 3180 ± 300 | 1.37e-05 ± 2.9e-06 | 0.000149 ± 2.3e-06 | –
39 | C58A | 0.000863 ± 0.00012 | 0.000118 ± 2.7e-06 | 0.000305 ± 7.2e-06 | 4110 ± 820 | 3.84e-05 ± 2.2e-06 | 0.000665 ± 2.3e-05 | 1.13e-05 ± 2.2e-06

Reference: the supplement of paper PMC7125110
